# Changes are numbered by the printed parent chain. Numbers in names are those of the source. Where two headings read alike, the source gives them in different places.
# B1: Hu4-14 (antibody, V domains shown)
# VH: QVQLVQSGAEVKKPGASVKVSCKASGYTFTSYWMNWVRQAPGQGLEWMGKIDPSDSETHFNQKFRDRVTLTVDKSTSTVYMELSSLRSEDTAVYYCARGGRISFDYDAALDYWGQGTLVTVSS
# VL: DIQMTQSPSSLSASVGDRVTITCKSSEVIYNRLAWYQQKPGNAPKLLISGATTLESGVPSRFSGSGSGKDYTLTISSLQPEDFATYYCQQYWNKPFTFGQGTKLEIK
# notes: Humanized 7G4 variant
# B2: Hu4-6-mut-2 (antibody, V domains shown)
# VH: B1 VH
# VL: B1 VL with N42K, S49Y, T53S, S56T
# notes: Hu4-6 with T53S and S56T in VL (LCDR2)
# B3: Hu4-6-mut-1 (antibody, V domains shown)
# VH: B1 VH with A108G
# VL: B1 VL with N42K, S49Y
# notes: Hu4-6 with A108G in VH (HCDR3)
# B4: Hu4-13 (antibody, V domains shown)
# VH: B1 VH with L70M, V72R, K74T
# VL: B1 VL
# notes: Humanized 7G4 variant
# B5: Hu4-6-mut-3 (antibody, V domains shown)
# VH: B1 VH with A108G
# VL: B1 VL with N42K, S49Y, T53S, S56T
# notes: Hu4-6 with A108G in VH and T53S and S56T in VL
# B6: Hu4-15 (antibody, V domains shown)
# VH: B1 VH with M48I
# VL: B1 VL
# notes: Humanized 7G4 variant
# B7: Hu4-16 (antibody, V domains shown)
# VH: B1 VH with A40R, M48I
# VL: B1 VL
# notes: Humanized 7G4 variant
# B8: Hu4-6 (antibody, V domains shown)
# VH: B1 VH
# VL: B1 VL with N42K, S49Y
# notes: Humanized 7G4 variant
# B9: IFNAR1 monoclonal antibody 10C2 (antibody, from another filing, V domains shown)
# VH: QIQLVQSGPELKKPGETVKISCKASGYTFTNYGMNWVKQAPGKGLKWMGWINTYTGEPTYSDDFKGRFAFSLETSASTANLQINNLKDEDAATYFCAREGAIYYGDYVYFGVWGAGTTVTVSS
# VL: DIVMTQSQKFMSTSVGDRVSITCKASQNVGTAVAWYQEKPGQSPKLLIYSASNRYTGVPDRFTGSGSGTAFTLTISNMQSEDLADYFCQQYYNYPLTFGAGTKLEVKR
# B10: IFNAR1 monoclonal antibody 10C9 (antibody, from another filing, V domains shown)
# VH: QIQLVQSGPELKKPGETVKISCKASGYTFTNYGVNWMKQAPGKGLKWMGWINTYTGEPTYADDFKGRFAFSLETSASTAYLQINNLKNEDTATYFCAREGVYYYGDWAWLAYWGQGTLVTVSA
# VL: DIVMTQSQKFISTSVGDRVSVTCKASQNVGTNVAWYQQKPGQSPKTLIYSTSYRYNGVPDRFTGSGSGTDFTLTISNVQSEDLAEYFCQQYNSYYTFGGGTKLEIK
# B11: 7G4 Chimeric (antibody, V domains shown)
# VH: QVQLQQPGAELVKPGAPVKLSCKASGYTFTSYWMNWVRQRPGRGLEWIGKIDPSDSETHFNQKFRDKATLTVDKSSTTAYIQLSSLTSEDSAVYYCARGGRISFDYDAALDYWGQGTSVTVSS
# VL: DILMTQSSSSFSVSLGDRVTITCKSSEVIYNRLAWFQQKPGNAPRLLISGATTLESGFPSRFSGSGSGKDYTLSITSLQIEDVSTYYCQQYWNKPFTFGSGTKLEVK
# Key:
# [1] = biological target: T1, human IFNAR1, full length (IFNAR1-aa1-557) (human) (UniProt P17181); test: cell-based or functional assay
# T1 sequence (looked up): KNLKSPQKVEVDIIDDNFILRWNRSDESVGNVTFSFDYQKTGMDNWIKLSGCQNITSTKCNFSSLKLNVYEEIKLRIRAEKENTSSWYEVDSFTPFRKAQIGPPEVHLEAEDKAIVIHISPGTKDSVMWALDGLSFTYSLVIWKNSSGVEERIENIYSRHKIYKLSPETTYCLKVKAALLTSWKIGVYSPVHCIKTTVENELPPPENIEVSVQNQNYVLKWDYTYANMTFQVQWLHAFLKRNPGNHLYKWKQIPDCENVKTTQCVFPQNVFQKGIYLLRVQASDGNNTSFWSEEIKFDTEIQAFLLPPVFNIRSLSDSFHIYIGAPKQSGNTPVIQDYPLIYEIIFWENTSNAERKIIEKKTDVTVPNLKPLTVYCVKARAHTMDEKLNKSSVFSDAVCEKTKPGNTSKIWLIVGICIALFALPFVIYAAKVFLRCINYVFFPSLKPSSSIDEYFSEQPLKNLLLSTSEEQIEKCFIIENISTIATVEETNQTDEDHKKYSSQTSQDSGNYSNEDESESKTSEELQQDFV
# Human IFNAR1 SD1-SD4 = biological target: T2, Human IFNAR1 SD1-SD4 (human, UniProt P17181 28-436, limits assumed); test: SPR (Biacore 8K), antibody captured on anti-human IgG Fc, antigen injected
# T2 construct: domain: SD1-SD4; Antigen injected in the Biacore assay
# T2 sequence (looked up): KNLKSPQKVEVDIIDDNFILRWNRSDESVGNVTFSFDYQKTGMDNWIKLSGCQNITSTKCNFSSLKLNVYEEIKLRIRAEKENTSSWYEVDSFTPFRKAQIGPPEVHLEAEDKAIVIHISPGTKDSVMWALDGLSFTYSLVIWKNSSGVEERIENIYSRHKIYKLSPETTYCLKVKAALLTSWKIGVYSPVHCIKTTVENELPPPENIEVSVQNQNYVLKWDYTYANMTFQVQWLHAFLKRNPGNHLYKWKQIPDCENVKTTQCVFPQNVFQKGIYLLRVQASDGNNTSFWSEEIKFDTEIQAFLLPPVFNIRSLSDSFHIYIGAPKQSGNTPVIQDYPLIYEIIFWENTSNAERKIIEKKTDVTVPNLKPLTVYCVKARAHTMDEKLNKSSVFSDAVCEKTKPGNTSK
# Description: Preparation of a CM5 chip surface: Using HBS-EP+ (10 mM HEPES, 150 mM NaCl, 3 mM EDTA, 0.05% surfactant P20) as running buffer, both channel 1&2 of a CM5 sensor chip (GE Healthcare, BR-1000-30) were activated with a fresh mixture of 50 mM NHS and 200 mM EDC (1:1). Anti-human IgG Fc, 20 μg/ml in 10 mM NaOAc buffer (pH 5.0), was then passed over the activated surface of the two flow cells in each channel at 10 l/min (target around 10000 RU). […] Low flow rate was maintained over 2 hours for the equilibrium of the immobilized protein.
# Measurement of binding kinetics: Each antibody was captured in flow cell FC2 in channel 1&2 around 250 RU respectively, using FC1 as the reference cell, followed by injection of antigen samples at varying concentrations. The signals with captured antibody subtracted from that without captured antibody were calculated with Biacore 8K evaluation software. The running buffer was HBS-EP+(10 mM HEPES, 150 mM NaCl, 3 mM EDTA, 0.05% surfactant P20).
# human IFNAR1 ECD = biological target: T3, human IFNAR1 ECD (human, UniProt P17181 28-436); test: ELISA, plate coated with human IFNAR1 ECD, anti-human IgG Fc-peroxidase, OD450
# T3 construct: extracellular domain; Coated on ELISA plates at 5 ug/ml
# T3 sequence (looked up): T2 sequence (looked up)
# Description: 96-well plates were coated with 100ul 5 ug/ml human IFNAR1 ECD in 1×PBS and incubate at 4° C. overnight. The plates were then washed with PBST (1×PBS+0.05% Tween20) for 3 times and blocked with the blocking buffer (1×PBS+0.05% Tween20+1% BSA) at RT for 2 hr. […] The plates were washed with PBST for 3 times, followed by addition of antibody (Anti-Human IgG (Fc specific)-Peroxidase antibody produced in goat, ZSGB-BIO) at 100ul/well and then incubated at RT for 1 hr. The plates were washed with PBST 5 times and then 100ul/well TMB was added and after 15 minutes, the plates were quenched with 50ul/well 2N H₂SO₄. The plates were read with Molecular device spectra max at 450 nm.
# [2] = biological target: T4, human IFNAR1, full length (IFNAR1-aa1-557) (human, UniProt P17181 28-557); test: flow cytometry on cells expressing human IFNAR1, MFI of PE
# T4 construct: whole, on cells; Overexpressed on HEK293T cells from pIRES2-EGFP-IFNAR1; also used here for the human IFNAR1 of the IFN-I reporter cells and the cells of the virus assays; also called IFNAR1-WT; wild type IFNAR1
# T4 sequence (looked up): T1 sequence (looked up)
# [3] = biological target: T4, human IFNAR1, full length …; test: as above; remark: listed apart in the source
# [4] = biological target: T1, human IFNAR1, full length (IFNAR1-aa1-557) (human); test: cell-based or functional assay; remark: listed apart in the source
molecule,measurement,setting,value
Human IFNβ (from UniProt P01574 22-187) (ligand),"percentage of GFP positive cells in IFN-I reporter cells, 50 pg/ml IFNβ against Mock control",[1],> 5 fold
Human IFNω (from UniProt P05000 24-195) (ligand),"percentage of GFP positive cells in IFN-I reporter cells, 50 pg/ml IFNω against Mock control",[1],> 5 fold
B1,Kd,Human IFNAR1 SD1-SD4,0.461 nM
same,koff,Human IFNAR1 SD1-SD4,0.000214 s⁻¹
same,kon,Human IFNAR1 SD1-SD4,465000 M⁻¹ s⁻¹
same,EC50,human IFNAR1 ECD,0.00227 µg/mL
same,Top,human IFNAR1 ECD,3.1 OD450
B2,EC50 (read off the curve),[2],~0.06 µg/mL
B3,EC50 (read off the curve),[2],~0.07 µg/mL
B4,EC50 (read off the curve),[3],~0.04 µg/mL
same,Kd,Human IFNAR1 SD1-SD4,0.671 nM
same,koff,Human IFNAR1 SD1-SD4,0.000301 s⁻¹
same,kon,Human IFNAR1 SD1-SD4,449000 M⁻¹ s⁻¹
same,EC50,human IFNAR1 ECD,0.00327 µg/mL
same,Top,human IFNAR1 ECD,3.4 OD450
B5,EC50 (read off the curve),[2],~0.06 µg/mL
B6,Kd,Human IFNAR1 SD1-SD4,0.442 nM
same,koff,Human IFNAR1 SD1-SD4,0.000209 s⁻¹
same,kon,Human IFNAR1 SD1-SD4,472000 M⁻¹ s⁻¹
same,EC50,human IFNAR1 ECD,0.00284 µg/mL
same,Top,human IFNAR1 ECD,3.46 OD450
B7,Kd,Human IFNAR1 SD1-SD4,0.466 nM
same,koff,Human IFNAR1 SD1-SD4,0.00021 s⁻¹
same,kon,Human IFNAR1 SD1-SD4,451000 M⁻¹ s⁻¹
same,EC50,human IFNAR1 ECD,0.00315 µg/mL
same,Top,human IFNAR1 ECD,3.31 OD450
B8,EC50 (read off the curve),[3],~0.04 µg/mL
same,EC50 (read off the curve),[2],~0.06 µg/mL
same,Kd,Human IFNAR1 SD1-SD4,0.633 nM
same,koff,Human IFNAR1 SD1-SD4,0.000281 s⁻¹
same,kon,Human IFNAR1 SD1-SD4,444000 M⁻¹ s⁻¹
same,EC50,human IFNAR1 ECD,0.00321 µg/mL
same,Top,human IFNAR1 ECD,3.35 OD450
B9,blocking effect on GFP expression induced by IFNα1 in IFN-I reporter cells (++ = greater than 80%),[4],> 80%
same,blocking effect on GFP expression induced by IFNα2a in IFN-I reporter cells (++ = greater than 80%),[4],> 80%
same,blocking effect on GFP expression induced by IFNα2b in IFN-I reporter cells (++ = greater than 80%),[4],> 80%
same,blocking effect on GFP expression induced by IFNα4 in IFN-I reporter cells (++ = greater than 80%),[4],> 80%
same,blocking effect on GFP expression induced by IFNα5 in IFN-I reporter cells (++ = greater than 80%),[4],> 80%
same,blocking effect on GFP expression induced by IFNα6 in IFN-I reporter cells (++ = greater than 80%),[4],> 80%
same,blocking effect on GFP expression induced by IFNα7 in IFN-I reporter cells (++ = greater than 80%),[4],> 80%
same,blocking effect on GFP expression induced by IFNα8 in IFN-I reporter cells (++ = greater than 80%),[4],> 80%
same,blocking effect on GFP expression induced by IFNα10 in IFN-I reporter cells (++ = greater than 80%),[4],> 80%
same,blocking effect on GFP expression induced by IFNα14 in IFN-I reporter cells (++ = greater than 80%),[4],> 80%
same,blocking effect on GFP expression induced by IFNα16 in IFN-I reporter cells (++ = greater than 80%),[4],> 80%
same,blocking effect on GFP expression induced by IFNα17 in IFN-I reporter cells (++ = greater than 80%),[4],> 80%
same,blocking effect on GFP expression induced by IFNα21 in IFN-I reporter cells (++ = greater than 80%),[4],> 80%
same,blocking effect on GFP expression induced by IFNω in IFN-I reporter cells (++ = greater than 80%),[4],> 80%
same,fold decrease in percentage of GFP positive reporter cells with serum from SLE patients,[4],3 fold
same,percentage of GFP positive reporter cells with human IFNβ and 10 µg/mL antibody,[4],20%
B10,blocking effect on GFP expression induced by IFNα1 in IFN-I reporter cells (++ = greater than 80%),[4],> 80%
same,blocking effect on GFP expression induced by IFNα2a in IFN-I reporter cells (++ = greater than 80%),[4],> 80%
same,blocking effect on GFP expression induced by IFNα2b in IFN-I reporter cells (++ = greater than 80%),[4],> 80%
same,blocking effect on GFP expression induced by IFNα4 in IFN-I reporter cells (++ = greater than 80%),[4],> 80%
same,blocking effect on GFP expression induced by IFNα5 in IFN-I reporter cells (++ = greater than 80%),[4],> 80%
same,blocking effect on GFP expression induced by IFNα6 in IFN-I reporter cells (++ = greater than 80%),[4],> 80%
same,blocking effect on GFP expression induced by IFNα7 in IFN-I reporter cells (++ = greater than 80%),[4],> 80%
same,blocking effect on GFP expression induced by IFNα8 in IFN-I reporter cells (++ = greater than 80%),[4],> 80%
same,blocking effect on GFP expression induced by IFNα10 in IFN-I reporter cells (++ = greater than 80%),[4],> 80%
same,blocking effect on GFP expression induced by IFNα14 in IFN-I reporter cells (++ = greater than 80%),[4],> 80%
same,blocking effect on GFP expression induced by IFNα16 in IFN-I reporter cells (++ = greater than 80%),[4],> 80%
same,blocking effect on GFP expression induced by IFNα17 in IFN-I reporter cells (++ = greater than 80%),[4],> 80%
same,blocking effect on GFP expression induced by IFNα21 in IFN-I reporter cells (++ = greater than 80%),[4],> 80%
same,blocking effect on GFP expression induced by IFNω in IFN-I reporter cells (++ = greater than 80%),[4],> 80%
B11,EC50 (read off the curve),[3],~0.04 µg/mL
same,Kd,Human IFNAR1 SD1-SD4,0.765 nM
same,koff,Human IFNAR1 SD1-SD4,0.000349 s⁻¹
same,kon,Human IFNAR1 SD1-SD4,456000 M⁻¹ s⁻¹
same,EC50,human IFNAR1 ECD,0.00465 µg/mL
same,Top,human IFNAR1 ECD,3.27 OD450
